{
  "source": "patent US20220396632A1",
  "about": "(VERSEAU THERAPEUTICS, published 2022)",
  "key": {"[1]": {"target": "T1, Human fibrinogen protein (ThermoFisher, RP-43142) (human, UniProt P02671 20-629; P02675 31-491; P02679 27-453, limits assumed, natural sulfotyrosines)", "T1 construct": "mature; Native dimer with 3 pairs of non-identical chains; also called gamma-fibrinogen; γ fibrinogen protein", "T1 sequence (looked up) 1": "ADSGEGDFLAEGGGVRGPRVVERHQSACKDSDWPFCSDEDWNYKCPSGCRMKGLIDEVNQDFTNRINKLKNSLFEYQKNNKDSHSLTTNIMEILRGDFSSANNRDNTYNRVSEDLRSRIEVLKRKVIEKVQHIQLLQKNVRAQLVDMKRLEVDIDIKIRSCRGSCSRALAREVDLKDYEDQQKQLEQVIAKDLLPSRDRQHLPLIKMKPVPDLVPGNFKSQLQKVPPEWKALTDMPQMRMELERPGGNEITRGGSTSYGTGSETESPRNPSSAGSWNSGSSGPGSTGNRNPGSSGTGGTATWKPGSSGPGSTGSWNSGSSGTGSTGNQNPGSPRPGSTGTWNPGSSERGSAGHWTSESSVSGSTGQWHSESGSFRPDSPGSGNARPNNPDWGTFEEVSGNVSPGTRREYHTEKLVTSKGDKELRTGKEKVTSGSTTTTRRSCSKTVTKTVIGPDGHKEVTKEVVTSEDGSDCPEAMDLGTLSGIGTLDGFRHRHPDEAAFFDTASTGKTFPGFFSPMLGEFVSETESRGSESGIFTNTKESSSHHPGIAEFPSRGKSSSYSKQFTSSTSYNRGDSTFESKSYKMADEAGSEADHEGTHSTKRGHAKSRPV", "T1 sequence (looked up) 2": "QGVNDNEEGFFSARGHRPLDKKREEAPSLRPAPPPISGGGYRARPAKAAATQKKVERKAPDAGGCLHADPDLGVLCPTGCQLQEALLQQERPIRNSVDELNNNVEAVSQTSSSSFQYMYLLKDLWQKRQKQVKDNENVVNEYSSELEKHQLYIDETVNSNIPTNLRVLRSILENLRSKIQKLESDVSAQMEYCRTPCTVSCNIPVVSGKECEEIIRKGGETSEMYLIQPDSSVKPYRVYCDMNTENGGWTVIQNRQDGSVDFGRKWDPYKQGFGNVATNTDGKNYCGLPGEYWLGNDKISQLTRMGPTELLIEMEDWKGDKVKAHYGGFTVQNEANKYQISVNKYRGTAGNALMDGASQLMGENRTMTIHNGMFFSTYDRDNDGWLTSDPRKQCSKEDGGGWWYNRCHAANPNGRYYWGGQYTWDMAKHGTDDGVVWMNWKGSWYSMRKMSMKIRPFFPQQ", "T1 sequence (looked up) 3": "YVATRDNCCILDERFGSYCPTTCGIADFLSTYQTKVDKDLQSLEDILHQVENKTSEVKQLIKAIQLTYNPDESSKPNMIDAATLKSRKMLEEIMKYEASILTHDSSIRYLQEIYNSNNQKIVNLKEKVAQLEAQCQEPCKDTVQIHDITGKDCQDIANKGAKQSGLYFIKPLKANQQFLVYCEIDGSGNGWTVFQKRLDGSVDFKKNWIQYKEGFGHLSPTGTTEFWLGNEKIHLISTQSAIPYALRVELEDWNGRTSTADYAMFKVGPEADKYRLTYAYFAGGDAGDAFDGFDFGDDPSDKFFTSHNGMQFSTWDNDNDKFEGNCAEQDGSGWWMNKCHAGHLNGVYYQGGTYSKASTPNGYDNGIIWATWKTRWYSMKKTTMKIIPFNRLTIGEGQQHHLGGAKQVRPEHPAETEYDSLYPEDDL", "test": "ELISA, 50 nM mAb", "method": "(§1) Recombinant PSGL-1-hFc1 chimera protein consisting of PSGL-1's extracellular domain (ECD) served as a positive control. […] Primary antibody was added (25 ul per well) in duplicate at 50 nM in assay buffer (blocking buffer containing 0.05% Tween®20) into test and control (just blocked) wells and the plate incubated for 45 min at 37° C."}, "[2]": {"target": "T2, Sulfotyrosine CCR2b biotin peptide (human)", "T2 construct": "also called CCR2b peptide", "T2 peptide": "TTFFD[sY]D[sY]GAPSHGGK(Biotin)", "test": "ELISA, 50 nM mAb", "method": "as §1"}, "SulfoTyr C4 peptide": {"target": "T3, SulfoTyr C4 peptide (not fully specified; Y4, Y7 and Y9 sulfated (SO3); C-terminal biotin)", "T3 construct": "also called C4 alpha chain peptide; human sulfotyrosinylated C4 peptide", "T3 peptide": "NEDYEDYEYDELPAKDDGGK", "test": "ELISA, 50 nM mAb", "method": "as §1"}, "[3]": {"target": "T4, Human complement C4 protein (Millipore Sigma, Cat. 204886) (human, UniProt P0C0L4 20-675; P0C0L4 680-1446; P0C0L4 1454-1744, limits assumed, natural sulfotyrosines)", "T4 construct": "mature", "T4 sequence (P0C0L4 20-675 limits assumed, form in doubt, chain 1 of 3)": "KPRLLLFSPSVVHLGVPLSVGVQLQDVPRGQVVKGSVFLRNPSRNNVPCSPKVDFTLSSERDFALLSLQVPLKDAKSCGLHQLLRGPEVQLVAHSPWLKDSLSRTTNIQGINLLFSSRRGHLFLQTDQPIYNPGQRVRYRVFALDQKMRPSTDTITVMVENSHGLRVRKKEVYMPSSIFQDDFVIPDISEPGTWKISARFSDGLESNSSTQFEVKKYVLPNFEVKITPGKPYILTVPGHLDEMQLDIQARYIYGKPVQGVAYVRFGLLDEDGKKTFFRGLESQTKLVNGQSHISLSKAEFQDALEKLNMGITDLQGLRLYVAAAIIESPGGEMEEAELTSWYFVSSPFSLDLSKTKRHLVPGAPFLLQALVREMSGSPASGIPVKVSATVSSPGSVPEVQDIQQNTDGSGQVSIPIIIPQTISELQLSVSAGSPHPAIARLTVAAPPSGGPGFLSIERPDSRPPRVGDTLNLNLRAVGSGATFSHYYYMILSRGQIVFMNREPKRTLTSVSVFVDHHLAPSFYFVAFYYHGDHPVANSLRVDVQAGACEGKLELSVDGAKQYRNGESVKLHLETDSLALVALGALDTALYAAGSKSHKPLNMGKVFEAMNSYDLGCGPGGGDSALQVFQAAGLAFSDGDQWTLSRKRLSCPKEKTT", "T4 sequence (P0C0L4 680-1446 limits assumed, form in doubt, chain 2 of 3)": "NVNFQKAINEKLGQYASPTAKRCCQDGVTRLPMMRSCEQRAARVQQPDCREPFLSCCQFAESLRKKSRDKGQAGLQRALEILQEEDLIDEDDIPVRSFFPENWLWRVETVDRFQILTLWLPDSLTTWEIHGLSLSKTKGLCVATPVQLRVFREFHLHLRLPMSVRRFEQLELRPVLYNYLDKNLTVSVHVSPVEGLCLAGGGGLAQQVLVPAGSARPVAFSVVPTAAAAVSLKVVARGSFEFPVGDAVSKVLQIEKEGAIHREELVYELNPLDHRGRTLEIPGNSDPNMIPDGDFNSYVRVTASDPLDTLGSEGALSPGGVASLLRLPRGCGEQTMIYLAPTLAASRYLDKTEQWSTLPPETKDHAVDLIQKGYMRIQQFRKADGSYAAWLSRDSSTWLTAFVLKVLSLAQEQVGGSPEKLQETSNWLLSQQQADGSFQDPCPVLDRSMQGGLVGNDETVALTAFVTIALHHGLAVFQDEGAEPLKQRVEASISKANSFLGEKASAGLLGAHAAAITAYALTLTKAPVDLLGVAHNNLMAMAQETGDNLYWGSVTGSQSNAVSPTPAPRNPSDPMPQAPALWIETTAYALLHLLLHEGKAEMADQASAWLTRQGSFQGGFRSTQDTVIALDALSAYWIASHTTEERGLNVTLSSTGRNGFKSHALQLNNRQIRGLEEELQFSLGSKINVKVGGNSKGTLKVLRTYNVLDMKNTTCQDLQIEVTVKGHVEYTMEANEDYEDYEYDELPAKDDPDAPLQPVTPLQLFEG", "T4 sequence (P0C0L4 1454-1744 limits assumed, form in doubt, chain 3 of 3)": "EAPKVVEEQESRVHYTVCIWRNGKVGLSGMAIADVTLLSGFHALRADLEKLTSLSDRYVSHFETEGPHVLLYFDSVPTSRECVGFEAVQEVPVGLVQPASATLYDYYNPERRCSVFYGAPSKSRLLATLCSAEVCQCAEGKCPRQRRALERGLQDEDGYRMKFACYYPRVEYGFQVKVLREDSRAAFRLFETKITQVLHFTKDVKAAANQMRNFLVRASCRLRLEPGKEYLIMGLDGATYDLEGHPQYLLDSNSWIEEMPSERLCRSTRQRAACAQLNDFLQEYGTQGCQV", "test": "ELISA, 50 nM mAb", "method": "as §1"}, "[4]": {"target": "T5, Recombinant human PSGL-1(ECD)-hFc1 (R&D Systems, Cat. 3345-PS) (human, UniProt Q14242 42-305)", "T5 construct": "Bought; Gln42-Val295 counted on AAC50061; also called PSGL-1-Fc; PSGL-1-hFc1 chimera; not shown: human IgG1 Fc, Pro100-Lys330", "T5 sequence": "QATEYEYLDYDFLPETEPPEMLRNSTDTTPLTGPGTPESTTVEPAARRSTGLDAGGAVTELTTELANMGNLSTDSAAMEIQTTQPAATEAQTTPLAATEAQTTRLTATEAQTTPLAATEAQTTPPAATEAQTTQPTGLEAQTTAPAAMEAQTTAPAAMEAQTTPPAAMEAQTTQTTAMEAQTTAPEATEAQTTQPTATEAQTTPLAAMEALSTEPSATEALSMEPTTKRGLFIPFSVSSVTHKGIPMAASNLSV", "test": "ELISA, 50 nM mAb", "method": "as §1"}, "SulfoCCK biotin peptide": {"target": "T6, SulfoCCK biotin peptide (human)", "T6 construct": "also called sulfotyrosine CCK peptide", "T6 peptide": "SHRISDRD[sY]MGWMDFGGK(Biotin)", "test": "ELISA, 50 nM mAb", "method": "as §1"}, "[5]": {"target": "T5, Recombinant human PSGL-1(ECD)-hFc1 (R&D …)", "test": "blocking ELISA vs P-selectin-Fc", "method_in_brief": "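IC50 per antibody was derived from sigmoidal fitted titration curves. Plates carried PSGL-1-Fc coated at 2.5 ug/mL (PBS, pH 7.4, 4° C overnight). Serially diluted antibodies in duplicate were incubated 45 min at 37° C, and signal was developed with HRP-conjugated streptavidin.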"}},
  "note": "Non-standard residues stand in square brackets, D forms with d. No end group written: not given here. *: point of attachment. Biotin = O=C1N[C@H]2[C@H](CS[C@H]2CCCCC(=O)*)N1; sY = N[C@@H](Cc1ccc(OS(=O)(=O)O)cc1)C(=O)O",
  "data": [
    {"binder": "10F01 (antibody, IgG4, V domains shown) VH: EVQLVQSGGGLVQPGGSLRLSCAASGFTFSSYAMSWVRQAPGKGLEWVSALRGGDGGTYHADSVKGRFTISGDSSKNTLYLQMNSLRAEDTAVYYCARRMVGAAYAFDIWGQGTMVTVSS VL: LPVLTQPHSVSESPGKTVTISCTRSSGSIADNFVQWYRQRPGSAPTTVIYEGDQRPSGVPGRFSGSIDSSSNSASLTISGLQTDDEADYYCQSFDSYNRRTHVVFGGGTKLTVL", "values": [
      {"measurement": "binding normalized to PSGL-1", "setting": "[1]", "result": 0.01},
      {"measurement": "binding result", "setting": "[1]", "result": "no binding (tested: 50 nM)"},
      {"measurement": "binding normalized to PSGL-1", "setting": "[2]", "result": 0.03},
      {"measurement": "binding normalized to PSGL-1", "setting": "SulfoTyr C4 peptide", "result": 0.17},
      {"measurement": "binding normalized to PSGL-1", "setting": "[3]", "result": 0.06},
      {"measurement": "A450nm", "setting": "[4]", "result": 2.1, "unit": "A450nm"},
      {"measurement": "binding normalized to PSGL-1", "setting": "SulfoCCK biotin peptide", "result": 0.03},
      {"measurement": "% max Block", "setting": "[5]", "result": 100, "unit": "%"},
      {"measurement": "IC50", "setting": "[5]", "result": 4, "unit": "nM"}
    ]},
    {"binder": "03D07 (antibody, IgG4, V domains shown) VH: EVKLLESGGGLVQPGGSLRLSCAASGFTFSSYALSWVRQAPGKGLEWVSAISGSGGNTYYADSVKGRFTISRDNSKNTLYLQMNSLRAEDTAVYYCAKVVGATNYWGQGTLVTVSS VL: DIVMTQTPLSLPVTLGQPASISCRSSQSLVYSDGHTYLSWFHQRPGQSPRRLIYKVSIRDSGVPDRFSGSGSGTDFTLKISRVEAEDVGVYYCMQRLQIPLTFGGGTKVEIK", "values": [
      {"measurement": "binding normalized to PSGL-1", "setting": "[1]", "result": 0.06},
      {"measurement": "binding normalized to PSGL-1", "setting": "[2]", "result": 0.16},
      {"measurement": "binding normalized to PSGL-1", "setting": "SulfoTyr C4 peptide", "result": 0.71},
      {"measurement": "binding normalized to PSGL-1", "setting": "[3]", "result": 0.53},
      {"measurement": "A450nm", "setting": "[4]", "result": 2.25, "unit": "A450nm"},
      {"measurement": "binding normalized to PSGL-1", "setting": "SulfoCCK biotin peptide", "result": 0.08},
      {"measurement": "% max Block", "setting": "[5]", "result": 100, "unit": "%"},
      {"measurement": "IC50", "setting": "[5]", "result": 5, "unit": "nM"}
    ]}
  ]
}
